Reference: the supplement of paper PMC11780869

Test system: Bacillus subtilis
Assay: cleaved RNA product abundance (RNA/gDNA barcode ratio) relative to median wild-type variant (ratio to wild type); higher = more accumulation of the downstream cleavage product
Summary of the method: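 B. subtilis strains with chromosomally integrated reporter mRNAs (truncated aprE or tetM) holding barcoded, mutagenized RNase Y cleavage-site windows grew in LB at 37°C from OD600 0.0003 to 0.3. Cleaved product abundance is each construct's RNA:gDNA barcode ratio, scaled to the median construct with the unmutated site. It came from sequencing barcodes of gel-selected, reverse-transcribed cleaved RNA and of genomic DNA.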

[1] = experiment (reporter, strain, medium): exp 4a: truncated aprE reporter, strain BJT201 with 2% xylose (RNase J1 expressed), cleavage site: cggR-gapA (positions -7 to +36 mutated)
[2] = experiment (reporter, strain, medium): exp 6: tetM reporter, strain 168, cleavage site: cggR-gapA (positions -7 to +36 mutated)
[3] = experiment (reporter, strain, medium): exp 2b: truncated aprE reporter, strain BJT200, cleavage site: cggR-gapA (positions -7 to +36 mutated)
[4] = experiment (reporter, strain, medium): exp 8a: truncated aprE reporter, strain BJT201 with 2% xylose (RNase J1 expressed), cleavage site: glnRA (positions -5 to +31 mutated)

| Sequence | cleaved RNA product abundance [1] | cleaved RNA product abundance [4] | other results |
| --- | --- | --- | --- |
| ACAGACGAAGGAGCCGCAAAGAAGTTATTAAGGGAAGAATAATCCCTAAATATAAAAATCTCTCACTTATTTAAA | 0.415 |  |  |
| ACAGACGAAGGAGCCGCAAATAAGTTATTAAGGGATGAATAATCCCTCAATATATATATCTCTCACTTATTTAAA | 0.9 |  |  |
| ACAGACGAAGGAGCCACAAAGAAGTTATTAAGGGATGAATAATCCCTCAATATAAATATCTCTCACTTATTTAAA |  |  | cleaved RNA product abundance [2]: 1.09 |
| ACAGACGAAGGAGCCGCAAAGAACTTATTAAGGGATGAATAATCCGTCAATATAAATATCTCTCACTTATTTAAA | 0.155 |  |  |
| ACAGACGAAGGAGCCGCAAAAAAGTTATTAAGGAATAAATAATCCCTCAATATAAATATCTCTCACTTATTTAAA |  |  | cleaved RNA product abundance [3]: 0.0862 |
| CGACATGTCCCGCTTCTTTCATTAATCCGTTAGCAACTATTTTGCTATATACAATTACCTTTTAAGAGGAGGAAT |  | 1.98 |  |
| ACAGACGAAGGAGCCGCAAAGAAGTTATTAAGGTAGGAATAATCCCTCAATATAAATATCTCTCACTTATTTAAA | 0.159 |  | cleaved RNA product abundance [3]: 0.145 |
| ACAGACGAAGGAGCCGCAAAGAAGTTATTAAGGCATGAATAATCCCTCAATGTAAATATCTCTCACTTATTTAAA | 0.0571 |  |  |
| ACAGACGAAGGAGCCGCAAAGAAGATATTAAGGGATGAATAATCCCTCAAAATAAATATCTCTCACTTATTTAAA | 0.205 |  | cleaved RNA product abundance [3]: 0.15 |
| ACAGACGAAGGAGCCGCAAAGAAGTTATTAAGGGATGAATACTCCCTCAAAATAAATATCTCTCACTTATTTAAA | 0.194 |  | cleaved RNA product abundance [3]: 0.176 |
| CGACATGTCCCGCTTCTTTCATTAATCCGTTAGCAACTTTTTTGCTATATACATTTACCGTTTAAGAGGAGGAAT |  | 1.51 |  |
| ACAGACGAAGGAGCCGCAAAGAAGTTATTTAGGGATGAATAATCCCTCAATATAAAAATCTCTCACTTATTTAAA | 0.601 |  |  |
| ACAGACGAAGGAGCCGCAAAGAAGTTATTACGGGATGAATAATCACTCAATATAAATATCTCTCACTTATTTAAA |  |  | cleaved RNA product abundance [3]: 0.108 |
| ACAGACGAAGGAGCCGCAAAGAAGTTATTAATGGATGCATAATCCCTCAATATAAATATCTCTCACTTATTTAAA | 0.169 |  | cleaved RNA product abundance [3]: 0.133 |
| CGACATGTCCCGCTTCTTTCATTAATCCGTGAGCAACTGTTTTGCTTTATACATTTACCTTTTAAGAGGAGGAAT |  | 0.184 |  |
| ACAGACGAAGGAGCCGCAAAGAAGTTATTAAGGGATGAATAATCCGTCAATATCAATATCTCTCACTTATTTAAA | 0.15 |  |  |
| ACAGACGAAGGAGCCGCAAAGAACTTATTACGGGATGAATAATCCCTCAATATAAATATCTCTCACTTATTTAAA | 0.248 |  |  |
| CGACATGTCCCGCTTCTTTCATTAATCCGTTTGCAACTGTTTTGCTATATACATATACCTTTTAAGAGGAGGAAT |  | 0.478 |  |
| ACAGACGAAGGAGCCGCAAAGAAGTTATTAAGGGATGAATAATCACCCAATATAAATATCTCTCACTTATTTAAA | 0.129 |  |  |
| ACAGACGAAGGAGCCGCAAAGAAGTTATTAAGGTATGAATAACCCCTCAATATAAATATCTCTCACTTATTTAAA | 0.0618 |  | cleaved RNA product abundance [3]: 0.0833 |
| ACAGACGAAGGAGCCGCAAAGAAGTTATTAAGGTCTGAATAATCCCTCAATATAAATATCTCTCACTTATTTAAA | 0.0753 |  | cleaved RNA product abundance [2]: 0.101 |

| Sequence | cleaved RNA product abundance [1] | cleaved RNA product abundance [4] | other results |
| --- | --- | --- | --- |
| ACAGACGAAGGAGCCGCAAAGAAGTTATTAAGTAATAAATAATCCCTCAATATAAATATCTCTCACTTATTTAAA | 0.0519 |  |  |
| ACAGACGAAGGAGCCGCAAAGAAGTTATTAATGGATGAATAATCCCTCAATATAAATGTCTCTCACTTATTTAAA | 0.194 |  | cleaved RNA product abundance [3]: 0.107 |
| ACAGACGAAGGAGCCGCAAAGAAATTATTAAGGGATGAATAATCGCTCAATATAAATATCTCTCACTTATTTAAA | 0.101 |  |  |
| CGACATGTCCCGCTTCTTTCATTAATCCGTTAGAAACTGTTTTGCTATATACATATACCTTTTAAGAGGAGGAAT |  | 0.244 |  |
| CGACATGTCCCGCTTCTTTCATTAATCCGTTCACAACTGTTTTGCTATATACATTTACCTTTTAAGAGGAGGAAT |  | 0.224 |  |
| ACAGACGAAGGAGCCGCAAAGAAGTTATGAAGGGATGAATAATCCCTCAATATAGATATCTCTCACTTATTTAAA | 0.446 |  |  |
| CGACATGTCCCGCTTCTTTCATTAATCAGTTAGCAACTGTTATGCTATATACATTTACCTTTTAAGAGGAGGAAT |  | 0.578 |  |
| CGACATGTCCCGCTTCTTTCATTAATCCGTTAGCAACTGTTTTGCTATATAAATGTACCTTTTAAGAGGAGGAAT |  | 1.78 |  |
| ACAGACGAAGGAGCCGCAAAGAAGTTATTAAGGGATGAATAATCCGTCGATATAAATATCTCTCACTTATTTAAA | 0.106 |  | cleaved RNA product abundance [3]: 0.0608 |
| ACAGACGAAGGAGCCGCAAAGAAGTTATTAAGGGATGAATAATCCCACAATATAAATAACTCTCACTTATTTAAA |  |  | cleaved RNA product abundance [3]: 0.231 |
| ACAGACGAAGGAGCCGCAAAGAAGTTATTAAGGGATGATTAATCCCTCAATATCAATATCTCTCACTTATTTAAA | 0.0525 |  |  |
| ACAGACGAAGGAGCCGCAAATAAGTTATTAAAGGATGAATAATCCCTCAATATAGATATCTCTCACTTATTTAAA | 0.188 |  |  |
| ACAGACGAAGGAGCCGCAAAGAAGTTAATAAGGGATGAATAATCTCTCAATATAAATATCTCTCACTTATTTAAA | 0.292 |  | cleaved RNA product abundance [3]: 0.195 |
| CGACATGTCCCGCTTCTTTCATTAATCCGTTAGCAACTGTTTTTCTATATACATATACCTTTTAAGAGGAGGAAT |  | 0.656 |  |
| CGACATGTCCCGCTTCTTTCATTAATCCGTTAGCAACTGATTTGCTATATACATTTACTTTTTAAGAGGAGGAAT |  | 1.06 |  |
| CGACATGTCCCGCTTCTTTCATTAATCCATTAGCAACTGTTTTGCTATATACATTTACCTTTTAAGAGGAGGAAT |  | 0.857 |  |
| CGACATGTCCCGCTTCTTTCATTAATCCGTTAGCACCTGTTTTGCTATATACAGTTACCTTTTAAGAGGAGGAAT |  | 0.393 |  |
| ACAGACGAAGGAGCCGCATAGAAGTTATTAAGGGATGAATACTCCCTCAATATAAATATCTCTCACTTATTTAAA | 0.618 |  |  |
| CGACATGTCCCGCTTCTTTCATTAATTCGTTAGCAACTGTTTTGCTATATATATTTACCTTTTAAGAGGAGGAAT |  | 1.55 |  |
| ACAGACGAAGGAGCCGCAAGGAAGTTATTAACGGATGAATAATCCCTCAATATAAATATCTCTCACTTATTTAAA | 0.121 |  |  |
| ACAGACGAAGGAGCCGCAAACAAGTTATTAAGGGATGAATAATCCCTCTATATAAATATCTCTCACTTATTTAAA | 0.46 |  |  |

| Sequence | cleaved RNA product abundance [1] | cleaved RNA product abundance [4] | other results |
| --- | --- | --- | --- |
| CGACATGTCCCGCTTCTTTCATTAATCCGTTGGCAACTGATTTGCTATATACATTTACCTTTTAAGAGGAGGAAT |  | 0.729 |  |
| ACAGACGAAGGAGCCGCATAGAAGTTATTCAGGGATGAATAATCCCTCAATATAAATATCTCTCACTTATTTAAA | 0.947 |  |  |
| CGACATGTCCCGCTTCTTTCATTAATCCGTTAGCAACTGTTTTGTTATATACATTTACCTTTTAAGAGGAGGAAT |  | 0.453 |  |
| ACAGACGAAGGAGCCGCAAAGAAGTTATTAAGGGATGAATAATGACTCAATATAAATATCTCTCACTTATTTAAA | 0.142 |  |  |
| ACAGACGAAGGAGCCGCAAAGCAGTTATTAAGGGATGCATAATCCCTCAATATAAATATCTCTCACTTATTTAAA |  |  | cleaved RNA product abundance [3]: 0.0725 |
| ACAGACGAAGGAGCCGCAAAGAAGTTGTTAAAGGATGAATAATCCCTCAATATAAATATCTCTCACTTATTTAAA | 0.0874 |  |  |
| ACAGACGAAGGAGCCGCAAACAAGTTATTAAGGGATGTATAATCCCTCAATATAAATATCTCTCACTTATTTAAA | 0.478 |  |  |
| ACAGACGAAGGAGCCGCAAAGAAGTTATGAAGGGATGAATAATCCCTCTATATAAATATCTCTCACTTATTTAAA | 0.516 |  |  |
| ACAGACGAAGGAGCCGCAAAGAAGTTATTAAGGGATGAACAATCGCTCAATATAAATATCTCTCACTTATTTAAA | 0.104 |  |  |
| CGACATGTCCCGCTTCTTTCATTAATCCGTTAACAACTGTTTTGTTATATACATTTACCTTTTAAGAGGAGGAAT |  | 0.271 |  |
| CGACATGTCCCGCTTCTTTCATTAATCCGTTAGCAACTGTTTAGCTATATATATTTACCTTTTAAGAGGAGGAAT |  | 0.416 |  |
| CGACATGTCCCGCTTCTTTCATTAATCCGTTAGCAACTGTTTTGCTTTATACATTTACCTTTTAAGAGGAGGAAT |  | 0.338 |  |
| CGACATGTCCCGCTTCTTTCATTAATCCGTTAGCAAATGTTTTGCTATATACAATTACCTTTTAAGAGGAGGAAT |  | 1.76 |  |
| ACAGACGAAGGAGCCGCAAAGAAGCTATTAAGGGATGAATAATCCCTAAATATAAATATCTCTCACTTATTTAAA | 0.407 |  | cleaved RNA product abundance [3]: 0.346 |
| CGACATGTCCCGCTTCTTTCATTAATCTGTTAGCAACTGTTTTGCCATATACATTTACCTTTTAAGAGGAGGAAT |  | 0.108 |  |
| ACAGACGAAGGAGCCGCAAAGATGTTATTAAGGGATTAATAATCCCTCAATATAAATATCTCTCACTTATTTAAA | 0.703 |  |  |
| ACAGACGAAGGAGCCGCAAAGAAGTTATTAAGGAATGAATAATGCCTCAATATAAATATCTCTCACTTATTTAAA | 0.0706 |  |  |
| ACAGACGAAGGAGCCGCAAAGAAGTTATTAAGGGATGAATAATCCCTCAATATATATTTCTCTCACTTATTTAAA | 0.561 |  |  |
| CGACATGTCCCGCTTCTTTCATTAATCCGTTATCAACTATTTTGCTATATACATTTACCTTTTAAGAGGAGGAAT |  | 0.276 |  |
| CGACATGTCCCGCTTCTTTCATTATTCCGTTACCAAATGTTTTGCTATATACATTTACCTTTTAAGAGGAGGAAT |  | 0.265 |  |
